The source of these data is FireProtDB (doi:10.1006/jmbi.1999.3099).

For the data set the following is noted: Mus musculus, pH 7.5, Thermal, Potassium phosphate 50 mM, KCl 50 mM, reversible: yes, structure 1MBG.

The Tm is the temperature at the midpoint of the melting transition.

Chain of Transcriptional activator Myb V103I, P06876 (P06876 whole entry V103I): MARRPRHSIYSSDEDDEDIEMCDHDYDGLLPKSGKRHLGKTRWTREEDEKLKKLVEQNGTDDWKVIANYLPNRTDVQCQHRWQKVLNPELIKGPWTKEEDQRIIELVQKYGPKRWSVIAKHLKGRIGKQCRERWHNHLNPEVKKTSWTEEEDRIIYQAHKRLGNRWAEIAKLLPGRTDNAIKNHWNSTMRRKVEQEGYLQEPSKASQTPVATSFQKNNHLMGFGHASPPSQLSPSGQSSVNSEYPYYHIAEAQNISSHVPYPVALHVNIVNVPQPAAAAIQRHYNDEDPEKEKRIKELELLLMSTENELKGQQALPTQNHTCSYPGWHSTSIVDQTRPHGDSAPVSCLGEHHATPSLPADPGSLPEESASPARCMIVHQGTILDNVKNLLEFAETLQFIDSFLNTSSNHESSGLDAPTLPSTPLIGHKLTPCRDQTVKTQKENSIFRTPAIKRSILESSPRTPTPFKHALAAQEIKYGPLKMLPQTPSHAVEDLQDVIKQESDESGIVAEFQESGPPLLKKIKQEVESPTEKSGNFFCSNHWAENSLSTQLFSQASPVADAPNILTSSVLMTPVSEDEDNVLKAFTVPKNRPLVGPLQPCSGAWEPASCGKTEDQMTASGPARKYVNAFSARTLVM
Chain of Transcriptional activator Myb V103L, P06876 (P06876 whole entry V103L): as the sequence (P06876 whole entry V103I) above, with I103L counted along it
Chain of Transcriptional activator Myb V103A, P06876 (P06876 whole entry V103A): as the sequence (P06876 whole entry V103I) above, with I103A counted along it

With “Transcriptional activator Myb V103A, P06876”, where the note is “CD”, the Tm worked out at 2.8 °C and the “change of melting temperature, mutant - wild type (higher = more stable)” value (“change of melting temperature, mutant” for short) was -36.8 °C.
On to “Transcriptional activator Myb V103I, P06876”, for which, where the note is “CD”, the melting temperature (Tm) was 46.6 °C and the “change of melting temperature, mutant” value worked out at 7 °C. For the setting “DSC”, the Tm was found to be 47.5 °C and the “unfolding enthalpy (calorimetric)” value was 32.1 kcal/mol.
As for “Transcriptional activator Myb V103L, P06876”, under “CD”, the Tm stood at 62 °C and the “change of melting temperature, mutant” value was 22.4 °C. Further, under “DSC”, the Tm was found to be 62 °C and the “unfolding enthalpy (calorimetric)” value was found to be 41.8 kcal/mol.
